Measurements as given in PMC2911377.

Molecular target: amino terminal enhancer of Split (AES), HA tagged (human) (UniProt Q08117)
Sequence of UniProt Q08117 (Q08117 whole entry): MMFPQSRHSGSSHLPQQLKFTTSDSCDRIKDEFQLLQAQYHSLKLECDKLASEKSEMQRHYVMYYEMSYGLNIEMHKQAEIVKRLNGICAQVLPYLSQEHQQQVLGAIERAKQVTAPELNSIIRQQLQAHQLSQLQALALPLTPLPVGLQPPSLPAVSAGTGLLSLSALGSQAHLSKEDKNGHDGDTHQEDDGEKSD

Substance: GFP-LRP6-ICD-myc-NLS (wild type LRP6-ICD with a nuclear localization signal) (domain or fragment)
- repression of AES mediated TOP (TOPflash, TCF/LEF-1 luciferase reporter) transcription in HEK 293T cells co-transfected with AES-HA and GFP-LRP6-ICD-NLS, 24 hrs: 138%
